Earlier results, collected in paper PMC139967 (BMC Biochemistry, 2002).

Experiments:
[1] = not given; remark: listed apart in the source
[2] = tested on: calmodulin

B1: Myo1c: Myosin-1c, previously called myosin-Iβ, myr 2, or MI-110K; literature preparations (protein, UniProt O00159 1-1063, looked up)
Unconventional myosin-Ic: MALQVELVPTGEIIRVVHPHRPCKLALGSDGVRVTMESALTARDRVGVQDFVLLENFTSEAAFIENLRRRFRENLIYTYIGPVLVSVNPYRDLQIYSRQHMERYRGVSFYEVPPHLFAVADTVYRALRTERRDQAVMISGESGAGKTEATKRLLQFYAETCPAPERGGAVRDRLLQSNPVLEAFGNAKTLRNDNSSRFGKYMDVQFDFKGAPVGGHILSYLLEKSRVVHQNHGERNFHIFYQLLEGGEEETLRRLGLERNPQSYLYLVKGQCAKVSSINDKSDWKVVRKALTVIDFTEDEVEDLLSIVASVLHLGNIHFAANEESNAQVTTENQLKYLTRLLSVEGSTLREALTHRKIIAKGEELLSPLNLEQAAYARDALAKAVYSRTFTWLVGKINRSLASKDVESPSWRSTTVLGLLDIYGFEVFQHNSFEQFCINYCNEKLQQLFIELTLKSEQEEYEAEGIAWEPVQYFNNKIICDLVEEKFKGIISILDEECLRPGEATDLTFLEKLEDTVKHHPHFLTHKLADQRTRKSLGRGEFRLLHYAGEVTYSVTGFLDKNNDLLFRNLKETMCSSKNPIMSQCFDRSELSDKKRPETVATQFKMSLLQLVEILQSKEPAYVRCIKPNDAKQPGRFDEVLIRHQVKYLGLLENLRVRRAGFAYRRKYEAFLQRYKSLCPETWPTWAGRPQDGVAVLVRHLGYKPEEYKMGRTKIFIRFPKTLFATEDALEVRRQSLATKIQAAWRGFHWRQKFLRVKRSAICIQSWWRGTLGRRKAAKRKWAAQTIRRLIRGFVLRHAPRCPENAFFLDHVRTSFLLNLRRQLPQNVLDTSWPTPPPALREASELLRELCIKNMVWKYCRSISPEWKQQLQQKAVASEIFKGKKDNYPQSVPRLFISTRLGTDEISPRVLQALGSEPIQYAVPVVKYDRKGYKPRSRQLLLTPNAVVIVEDAKVKQRIDYANLTGISVSSLSDSLFVLHVQRADNKQKGDVVLQSDHVIETLTKTALSANRVNSININQGSITFAGGPGRDGTIDFTPGSELLITKAKNGHLAVVAPRLNSR
effect of Ca^2+ on ATPase activity: increases
effect of Ca^2+ on in vitro motility [1]: completely halts
calmodulins per Myo1c after calmodulin supplementation ([2]; calmodulin supplementation): ≤ 4
calmodulins per Myo1c heavy chain ([2]; purified Myo1c): 2–3
